Patent US20260263646A1 (ENLAZA THERAPEUTICS, published 2026)
Residue numbers refer to the chain shown, from its start. Each block holds one binder with its values, some of them ahead of it.

Key:
[1] = target: T1, PSMA on LNCaP cells (human, UniProt Q04609 1-750); assay: flow cytometry on LNCaP cells
T1 construct: whole, on cells; also called LNCaP (PSMA+)

[2] = target: T2, PSMA (commercial, Sino Bio cat #15877-H07H) (UniProt Q04609 44-750); assay: SDS-PAGE, overnight 37C, ~7:1 sdAb:PSMA
T2 construct: also called receptor

[3] = target: PSMA on PC3pip cells (UniProt Q04609 1-750, limits assumed); assay: cell-based or functional assay
[4] = target: T2, PSMA (commercial, Sino Bio cat …); assay: SDS-PAGE, lysate + PSMA, 3 h 37C
[5] = target: T2, PSMA (commercial, Sino Bio cat …); assay: SDS-PAGE, 37C, ~8:1 sdAb:PSMA

T2 sequence (Q04609 44-750 limits assumed): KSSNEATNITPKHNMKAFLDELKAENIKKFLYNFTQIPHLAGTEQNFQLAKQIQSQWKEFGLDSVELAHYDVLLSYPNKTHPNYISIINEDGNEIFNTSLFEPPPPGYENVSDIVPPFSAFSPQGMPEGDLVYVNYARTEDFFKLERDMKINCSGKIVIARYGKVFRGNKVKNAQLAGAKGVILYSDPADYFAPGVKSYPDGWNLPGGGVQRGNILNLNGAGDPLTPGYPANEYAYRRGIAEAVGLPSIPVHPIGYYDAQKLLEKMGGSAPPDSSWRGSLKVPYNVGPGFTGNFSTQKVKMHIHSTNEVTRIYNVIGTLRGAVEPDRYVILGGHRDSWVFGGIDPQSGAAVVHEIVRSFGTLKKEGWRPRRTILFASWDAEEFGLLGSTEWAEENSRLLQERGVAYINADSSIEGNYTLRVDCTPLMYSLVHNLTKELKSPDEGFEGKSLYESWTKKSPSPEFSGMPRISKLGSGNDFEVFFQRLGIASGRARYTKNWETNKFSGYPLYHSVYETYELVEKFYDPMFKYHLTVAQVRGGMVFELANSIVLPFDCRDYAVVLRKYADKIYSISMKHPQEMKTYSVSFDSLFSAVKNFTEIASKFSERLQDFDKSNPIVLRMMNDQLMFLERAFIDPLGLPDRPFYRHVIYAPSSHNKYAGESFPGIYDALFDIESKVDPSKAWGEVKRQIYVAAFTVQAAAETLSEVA
T1 sequence (Q04609 whole entry): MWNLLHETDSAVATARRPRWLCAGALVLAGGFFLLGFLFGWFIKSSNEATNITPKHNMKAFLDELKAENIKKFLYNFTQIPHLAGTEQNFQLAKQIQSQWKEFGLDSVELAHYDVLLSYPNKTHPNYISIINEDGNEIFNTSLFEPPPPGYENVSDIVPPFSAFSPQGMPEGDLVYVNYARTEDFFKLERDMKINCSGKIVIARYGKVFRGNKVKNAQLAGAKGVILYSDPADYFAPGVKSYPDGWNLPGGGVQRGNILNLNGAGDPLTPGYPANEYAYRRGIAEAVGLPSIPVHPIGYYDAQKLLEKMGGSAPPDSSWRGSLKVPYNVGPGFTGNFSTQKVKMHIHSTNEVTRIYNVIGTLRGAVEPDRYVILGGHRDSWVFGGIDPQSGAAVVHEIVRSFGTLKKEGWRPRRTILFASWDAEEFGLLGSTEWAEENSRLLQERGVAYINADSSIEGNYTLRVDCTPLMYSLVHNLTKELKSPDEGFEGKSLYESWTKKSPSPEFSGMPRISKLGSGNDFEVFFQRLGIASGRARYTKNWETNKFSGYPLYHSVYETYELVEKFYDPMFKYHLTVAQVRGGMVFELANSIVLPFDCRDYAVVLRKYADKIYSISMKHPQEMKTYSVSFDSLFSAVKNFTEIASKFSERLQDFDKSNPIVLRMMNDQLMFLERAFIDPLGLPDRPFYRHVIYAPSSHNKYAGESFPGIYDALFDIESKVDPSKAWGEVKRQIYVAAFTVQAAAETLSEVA
Sequence of PSMA on PC3pip cells (Q04609 whole entry): as above

B2: C1-26FSY (VHH)
VHH: QVQLQESGGGSVQAGGSLRLSCTAPXYTDSNYYMSWFRQAPGKEREWVAGVNTGRGSTSYADSVKGRFTISQDNAKNTMFLQMNSLKPEDTAIYYCAVAACHFCDSLPKTQDEYILWGQGTQVTVSS
modifications: not fully specified; FSY at 26
notes: plus C-terminal His6
crosslinking efficiency [2]: < 50%

B3: C1-111FSY (VHH)
VHH: B2 VHH with X26G, Q111X
modifications: not fully specified; FSY at 111
notes: plus C-terminal His6
crosslinking efficiency [2]: < 50%

B4: C1-115FSY (VHH)
VHH: B2 VHH with X26G, I115X
modifications: not fully specified; FSY at 115
notes: plus C-terminal His6
crosslinking efficiency [2]: < 50%

B9: C1-108FSY (VHH)
VHH: B2 VHH with X26G, P108X
modifications: not fully specified; FSY at 108
notes: plus C-terminal His6
crosslinking efficiency [2]: < 50%

B12: C1-105FSY (VHH)
VHH: B2 VHH with X26G, D105X
modifications: not fully specified; FSY at 105
notes: plus C-terminal His6
crosslinking efficiency [2]: < 50%

B13: C28-101TYR (VHH)
VHH: QVQLQESGGGSVEAGGSLRLSCARSGWPYSTYSMNWFRQAPGKEREAVAGISSTMSGIIFAESKAGQFTISQDNAKNTVYLQMNNLKPEDTAIYYCAARRYFSLSSSSDDFDYWGQGTQVTVSS
modifications: MC-PEG8-VC-PABC-MMAE on the C-terminal Cys
IC50 PC3pip (M), cell viability by CellTiter-Glo after 4 days [3]: 8.47e-08 M

B15: C3-107FSY (VHH)
VHH: B13 VHH with Y101D, F102Y, S107X
modifications: not fully specified; FSY at 107
notes: plus C-terminal His6; tested as cell lysate
crosslinking efficiency [4]: < 50%

B19: C24-101TYR (VHH)
VHH: B13 VHH
EC50 [1]: > 500 nM

B21: C26-54TYR (VHH)
VHH: EVQLVESGGGLVQPGGSLTLSCAASRFMISEYSMHWVRQAPGKGLEWVSTINPYGTTDYAESVKGRFTISRDNAKNTLYLQMNSLKPEDTAVYYCDGYGYRGQGTQVTVSS
modifications: MC-PEG8-VC-PABC-MMAE on the C-terminal Cys (DAR 1)
IC50 PC3pip (M), cell viability by CellTiter-Glo after 4 days [3]: 3.36e-09 M

B22: C2-58FSY (VHH)
VHH: B21 VHH with Y54A, D58X
modifications: not fully specified; FSY at 58
notes: plus C-terminal His6
crosslinking efficiency [5]: > 50%

B26: C2-100FSY (VHH)
VHH: B21 VHH with Y54A, Y100X
modifications: not fully specified; FSY at 100
notes: plus C-terminal His6
crosslinking efficiency [5]: < 50%

Second part, the binder after the results:

EC50 [1]: 2.3 nM
B1: C34-TYR (bispecific antibody)
chain: EVQLVESGGGLVQPGGSLTLSCAASRFMISEYSMHWVRQAPGKGLEWVSTINPYGTTDYAESVKGRFTISRDNAKNTLYLQMNSLKPEDTAVYYCDGYGYRGQGTQVTVSSGGGGSGGGGSGGGGSQVQLQESGGGSVEAGGSLRLSCARSGWPYSTYSMNWFRQAPGKEREAVAGISSTMSGIIFAESKAGQFTISQDNAKNTVYLQMNNLKPEDTAIYYCAARRYFSLSSSSDDFDYWGQGTQVTVSSAAAYPYDVPDYGSLPETGGSPSTPPTPSPSTPP
notes: Biparatopic tandem of two anti-PSMA VHH

crosslinking efficiency [2]: < 50%
B5: C1-103FSY (VHH)
VHH: B2 VHH with X26G, F103X
modifications: not fully specified; FSY at 103
notes: plus C-terminal His6

crosslinking efficiency [2]: > 50%
B6: C1-29FSY (VHH)
VHH: B2 VHH with X26G, D29X
modifications: not fully specified; FSY at 29
notes: plus C-terminal His6

crosslinking efficiency [2]: < 50%
B7: C1-110FSY (VHH)
VHH: B2 VHH with X26G, T110X
modifications: not fully specified; FSY at 110
notes: plus C-terminal His6

crosslinking efficiency [2]: < 50%
B8: C1-99FSY (VHH)
VHH: B2 VHH with X26G, A99X
modifications: not fully specified; FSY at 99
notes: plus C-terminal His6

crosslinking efficiency [2]: > 50%
B10: C1-30FSY (VHH)
VHH: B2 VHH with X26G, S30X
modifications: not fully specified; FSY at 30
notes: plus C-terminal His6

crosslinking efficiency [2]: < 50%
B11: C1-114FSY (VHH)
VHH: B2 VHH with X26G, Y114X
modifications: not fully specified; FSY at 114
notes: plus C-terminal His6

crosslinking efficiency [4]: < 50%
B14: C3-101FSY (VHH)
VHH: B13 VHH with Y101X, F102Y
modifications: not fully specified; FSY at 101
notes: plus C-terminal His6

crosslinking efficiency [4]: < 50%
B16: C3-103FSY (VHH)
VHH: B13 VHH with Y101D, F102Y, S103X
modifications: not fully specified; FSY at 103
notes: as for B15

crosslinking efficiency [4]: > 50%
B17: C3-62FSY (VHH)
VHH: B13 VHH with E62X, Y101D, F102Y
modifications: not fully specified; FSY at 62
notes: as for B15

crosslinking efficiency [4]: > 50%
B18: C3-58FSY (VHH)
VHH: B13 VHH with I58X, Y101D, F102Y
modifications: not fully specified; FSY at 58
notes: as for B15

EC50 [1]: 12.3 nM
B20: C35-TYR (bispecific antibody)
chain: QVQLQESGGGSVEAGGSLRLSCARSGWPYSTYSMNWFRQAPGKEREAVAGISSTMSGIIFAESKAGQFTISQDNAKNTVYLQMNNLKPEDTAIYYCAARRYFSLSSSSDDFDYWGQGTQVTVSSGGGGSGGGGSGGGGSQVQLQESGGGSVEAGGSLRLSCARSGWPYSTYSMNWFRQAPGKEREAVAGISSTMSGIIFAESKAGQFTISQDNAKNTVYLQMNNLKPEDTAIYYCAARRYFSLSSSSDDFDYWGQGTQVTVSSAAAYPYDVPDYGSLPETGGSPSTPPTPSPSTPP
notes: Tandem of two copies of the same VHH

crosslinking efficiency [5]: < 50%
B23: C2-56FSY (VHH)
VHH: B21 VHH with Y54A, T56X
modifications: not fully specified; FSY at 56
notes: plus C-terminal His6

crosslinking efficiency [5]: > 50%
B24: C2-50FSY (VHH)
VHH: B21 VHH with T50X, Y54A
modifications: not fully specified; FSY at 50
notes: plus C-terminal His6

crosslinking efficiency [5]: > 50%
B25: C2-53FSY (VHH)
VHH: B21 VHH with P53X, Y54A
modifications: not fully specified; FSY at 53
notes: plus C-terminal His6
